Measurements reported in patent publication US20050014687A1.

Biological target: CG57008 protein, membrane bound (HAVcr-1, Hepatitis A virus cellular receptor 1) (human)
Experiment: flow cytometry on polarized human CD4+ Th2 cells, 10 ug/ml; isotype control

geometric mean of the fluorescence intensity: 8.4
Substance: PK16.3 isotype matched control mAb (antibody)
